Results from patent US20250346589A1, “RADIOISOTOPE LABELED SSTR2-AGONISTS WITH LINKERS” (Erasmus University Medical Center Rotterdam, priority 2022, published 2025).

Legend:
in vitro = in vitro ADME; details: for remaining at 1 h / remaining at 4 h / remaining at 24 h: mouse, serum, Stability in mouse serum (%)
Procedure: The ^203Pb-labelled compounds (˜2 MBq) or the ^212Pb-labelled compounds (˜70 kBq) were incubated in 300 μL of phosphate buffered saline (PBS; 0.1 M, pH 7.4) or mouse serum at 37° C. Stability of the radiolabed peptides was monitored at 1, 4 and 24 h post incubation. The samples in PBS were directly analyzed by radio-HPLC without any pretreatment. However, samples in mouse serum were mixed with an equal volume of acetonitrile to precipitate the proteins. The solution was centrifuged twice for 5 min at 13,000 rpm, and the supernatant was analyzed by radio-HPLC using Method 1 for lead-203 and Method 2 for lead-212.

[1] = tested on: H69-tumor xenograft and organs; design: species or system mice; details: mouse, in vivo, iv
Procedure: Six-week-old male Balb/c nu/nu-specific and opportunistic pathogen-tree (SOPF) mice (Janvier Labs, Le Genest-Saint-Isle, France) were housed in individually ventilated cages, with 4 mice per cage. Upon arrival, mice were acclimated for 1 week, with access to food and water ad libitum. Mice were subcutaneously inoculated on the right shoulder with NCI-H69 cells (5×10^6 cells suspended in 100 μL of ⅓ Matrigel (Corning Inc., Corning, NY, USA) and ⅔ Hank's balanced salt solution (Gibco). NCI-H69 xenografts were allowed to grow for 3 weeks. Tumor sizes were 391±173 mm^3 at the start of the studies. All animal experiments were approved by the Animal Welfare Committee of the Erasmus MC and were conducted in agreement with institutional guidelines (license number: AVD101002017867).
Biodistribution studies were performed to determine tumor and organ uptake of [^212Pb]Pb-DOTAMTATE, [^212Pb]Pb-DOTAM-Amcha-TATE or [^212Pb]Pb-DOTAM-Pip-TATE. Animals (n=4 for each time point and each compound) were injected intravenously with an average of 100 kBq/0.5 nmol at t=0. At 3 selected time points (1, 4 and 24 h) p.i. blood was collected via cardiac puncture under isoflurane/O2 anesthesia, after which the mice were sacrificed. The tumor and organs of interest (prostate, pancreas, spleen, liver, GI tract (stomach, small intestine, large intestine), kidneys, lungs, heart, muscle, bone and tail) were excised, washed in PBS and blotted dry. To confirm receptor specificity of the 3 radiotracers uptake, NCI-H69-xenografted mice were co-injected with [212Pb] Pb-DOTAMTATE, [^212Pb]Pb-DOTAM-Amcha-TATE or [^212Pb]Pb-DOTAM-Pip-TATE plus an excess (25 nmol) of the respective unlabelled peptide (n=3), after which tumor and organ uptake was determined at 24 h p.i. The blood, tumor, and relevant organs were weighed and measured in a γ-counter. To determine the total injected radioactivity per animal, calibration curve with lead-212 was determined. The percentage of injected dose per gram (% ID/g) was determined for each tissue sample and corrected for both the injected volume and % ID present at the injection site (the tail). […] Pb-DOTAMTATE. In Table 3, the absorbed dose per administered activity (Gy/MBq; with RBE=5) in H69-tumor xenograft and organs for [^212Pb]Pb-DOTAM-TATE, [^212Pb]Pb-DOTAM-Amcha-TATE and [^212Pb]Pb-DOTAM-Pip-TATE is given.

Row | Structure (SMILES) | Stability in mouse serum (%) (in vitro; 1 h) | Stability in mouse serum (%) (in vitro; 4 h) | Stability in mouse serum (%) (in vitro; 24 h) | remaining at 1 h (in vitro) | remaining at 4 h (in vitro) | remaining at 24 h (in vitro) | also measured
1 | C[C@@H](O)[C@H](NC(=O)[C@@H]1CSSC[C@H](NC(=O)[C@@H](Cc2ccccc2)NC(=O)CN2CCC(NC(=O)CN3CCN(CC(N)=O)CCN(CC(N)=O)CCN(CC(N)=O)CC3)CC2)C(=O)N[C@@H](Cc2ccc(O)cc2)C(=O)N[C@H](Cc2c[nH]c3ccccc23)C(=O)N[C@@H](CCCCN)C(=O)N[C@@H]([C@@H](C)O)C(=O)N1)C(=O)O [[^203Pb]Pb-DOTAM-Pip-TATE] [metal not drawn] | 97% | 97% | 97% |  |  |  | 
2 | C[C@@H](O)[C@H](NC(=O)[C@@H]1CSSC[C@H](NC(=O)[C@@H](Cc2ccccc2)NC(=O)CN2CCN(CC(N)=O)CCN(CC(N)=O)CCN(CC(N)=O)CC2)C(=O)N[C@@H](Cc2ccc(O)cc2)C(=O)N[C@H](Cc2c[nH]c3ccccc23)C(=O)N[C@@H](CCCCN)C(=O)N[C@@H]([C@@H](C)O)C(=O)N1)C(=O)O [[^203Pb]Pb-DOTAM-TATE] [metal not drawn, reference compound] | 99% | 99% | 99% |  |  |  | 
3 | C[C@@H](O)[C@H](NC(=O)[C@@H]1CSSC[C@H](NC(=O)[C@@H](Cc2ccccc2)NC(=O)[C@H]2CC[C@H](CNC(=O)CN3CCN(CC(N)=O)CCN(CC(N)=O)CCN(CC(N)=O)CC3)CC2)C(=O)N[C@@H](Cc2ccc(O)cc2)C(=O)N[C@H](Cc2c[nH]c3ccccc23)C(=O)N[C@@H](CCCCN)C(=O)N[C@@H]([C@@H](C)O)C(=O)N1)C(=O)O [[^212Pb]Pb-DOTAM-Amcha-TATE] [metal not drawn] |  |  |  |  |  |  | Absorbed dose per administered activity, Kidneys [1]: 121.73 ± 14.57 Gy/MBq; Absorbed dose per administered activity, Large Intestines [1]: 2.03 ± 0.26 Gy/MBq; Absorbed dose per administered activity, Liver [1]: 9.03 ± 2.24 Gy/MBq; Absorbed dose per administered activity, Lung [1]: 3.20 ± 0.40 Gy/MBq; Absorbed dose per administered activity, Pancreas [1]: 5.40 ± 0.14 Gy/MBq; Absorbed dose per administered activity, Spleen [1]: 0.73 ± 0.19 Gy/MBq; Absorbed dose per administered activity, Stomach wall [1]: 5.78 ± 0.77 Gy/MBq; Absorbed dose per administered activity, Tumor [1]: 35.49 ± 9.89 Gy/MBq
4 | C[C@@H](O)[C@H](NC(=O)[C@@H]1CSSC[C@H](NC(=O)[C@@H](Cc2ccccc2)NC(=O)CN2CCN(CC(N)=O)CCN(CC(N)=O)CCN(CC(N)=O)CC2)C(=O)N[C@@H](Cc2ccc(O)cc2)C(=O)N[C@H](Cc2c[nH]c3ccccc23)C(=O)N[C@@H](CCCCN)C(=O)N[C@@H]([C@@H](C)O)C(=O)N1)C(=O)O [[^212Pb]Pb-DOTAM-TATE, metal not drawn, reference compound] |  |  |  | 99% | 99% | 97% | 
5 | C[C@@H](O)[C@H](NC(=O)[C@@H]1CSSC[C@H](NC(=O)[C@@H](Cc2ccccc2)NC(=O)[C@H]2CC[C@H](CNC(=O)CN3CCN(CC(N)=O)CCN(CC(N)=O)CCN(CC(N)=O)CC3)CC2)C(=O)N[C@@H](Cc2ccc(O)cc2)C(=O)N[C@H](Cc2c[nH]c3ccccc23)C(=O)N[C@@H](CCCCN)C(=O)N[C@@H]([C@@H](C)O)C(=O)N1)C(=O)O [[^203Pb]Pb-DOTAM-Amcha-TATE] [metal not drawn] | 100% | 100% | 100% |  |  |  | 
6 | C[C@@H](O)[C@H](NC(=O)[C@@H]1CSSC[C@H](NC(=O)[C@@H](Cc2ccccc2)NC(=O)CN2CCN(CC(N)=O)CCN(CC(N)=O)CCN(CC(N)=O)CC2)C(=O)N[C@@H](Cc2ccc(O)cc2)C(=O)N[C@H](Cc2c[nH]c3ccccc23)C(=O)N[C@@H](CCCCN)C(=O)N[C@@H]([C@@H](C)O)C(=O)N1)C(=O)O [[^212Pb]Pb-DOTAM-TATE] [metal not drawn, reference compound] |  |  |  |  |  |  | Absorbed dose per administered activity, Kidneys [1]: 140.03 ± 17.95 Gy/MBq; Absorbed dose per administered activity, Large Intestines [1]: 1.64 ± 0.30 Gy/MBq; Absorbed dose per administered activity, Liver [1]: 6.93 ± 0.64 Gy/MBq; Absorbed dose per administered activity, Lung [1]: 2.06 ± 0.29 Gy/MBq; Absorbed dose per administered activity, Pancreas [1]: 3.65 ± 0.28 Gy/MBq; Absorbed dose per administered activity, Spleen [1]: 0.56 ± 0.14 Gy/MBq; Absorbed dose per administered activity, Stomach wall [1]: 4.42 ± 1.30 Gy/MBq; Absorbed dose per administered activity, Tumor [1]: 26.61 ± 19.27 Gy/MBq
7 | C[C@@H](O)[C@H](NC(=O)[C@@H]1CSSC[C@H](NC(=O)[C@@H](Cc2ccccc2)NC(=O)CN2CCC(NC(=O)CN3CCN(CC(N)=O)CCN(CC(N)=O)CCN(CC(N)=O)CC3)CC2)C(=O)N[C@@H](Cc2ccc(O)cc2)C(=O)N[C@H](Cc2c[nH]c3ccccc23)C(=O)N[C@@H](CCCCN)C(=O)N[C@@H]([C@@H](C)O)C(=O)N1)C(=O)O [[^212Pb]Pb-DOTAM-Pip-TATE, metal not drawn] |  |  |  | 99% | 99% | 96% | 
8 | C[C@@H](O)[C@H](NC(=O)[C@@H]1CSSC[C@H](NC(=O)[C@@H](Cc2ccccc2)NC(=O)[C@H]2CC[C@H](CNC(=O)CN3CCN(CC(N)=O)CCN(CC(N)=O)CCN(CC(N)=O)CC3)CC2)C(=O)N[C@@H](Cc2ccc(O)cc2)C(=O)N[C@H](Cc2c[nH]c3ccccc23)C(=O)N[C@@H](CCCCN)C(=O)N[C@@H]([C@@H](C)O)C(=O)N1)C(=O)O [[^212Pb]Pb-DOTAM-Amcha-TATE, metal not drawn] |  |  |  | 96% | 96% | 93% | 
